Results: article PMC5771465 (Nature structural & molecular biology, 2016)

What was measured:
[1] = molecular target: C5-OmCI complex (human | not stated (tick)) (UniProt Q5YD59); assay: SEC-MALS
complement C5 = complement C5 (human, UniProt P01031); assay: crystal structure

## RaCI3 (from UniProt A0A146B485 25-102) (natural protein)
[1]
  stoichiometry N: 1

B1: His-tagged OmCI carrying two glycosylation mutations (N78Q/N102Q) (natural protein)
chain: DSESDCTGSEPVDAFQAFSEGKEAYVLVRSTDPKARDCLKGEPAGEKQDNTLPVMMTFKQGTDWASTDWTFTLDGAKVTATLGQLTQNREVVYDSQSHHCHVDKVEKEVPDYEMWMLDAGGLEVEVECCRQKLEELASGRNQMYPHLKDC
Complement C5
  binding result: binds
